Kd, koff and kon data for two molecules are collected here from PMC11751877.

Assay [1] deals with ALK4-Fc (Fc-fused ALK4 ligand-binding domain). Kind of assay: SPR; Biacore 3000, 25°C; about 500 RU of ALK4-Fc captured on anti-human IgG (Fc) CM5 chip, Fc-free Cripto-1 injected at varying concentrations; HBS/EPS with 0.5 M NaCl and 0.1% BSA, pH 7.4; KD = kd/ka. For orientation: In SPR one partner is held on a chip, and binding of the other changes the refractive index at the surface.

Assay [2] has as its target Cripto-1 NE-Fc (N-terminal and EGF-like domains fused to human IgG1 Fc) (human). Kind of assay: SPR; Biacore 3000, 25°C; about 500 RU of Cripto-1-Fc construct captured on anti-human IgG (Fc) CM5 chip, Nodal injected at several concentrations; HBS/EPS (0.01 M Hepes, 0.5 M NaCl, 3 mM EDTA, 0.005% Tween 20, pH 7.4) with 0.1% BSA; 50 μL/min; fitted to a 1:1 or bivalent analyte model, KD = kd/ka; apparent.

Assay [3] addresses Cripto-1 E-Fc (EGF-like domain fused to human IgG1 Fc) (human). Described as above.
Assay [4] has as its target Cripto-1 EC-Fc (EGF-like and CFC domains fused to human IgG1 Fc) (human). Described as above.
In assay [5] the target is full-length Cripto-1-Fc (NEC-Fc), soluble full-length variant lacking the GPI anchor, fused to human IgG1 Fc (human). The assay is described as above.
full-length Cripto-1-Fc (NEC-Fc), soluble full-length variant lacking the GPI anchor, fused to human IgG1 Fc (human), sequence (P13385 31-163, change not shown): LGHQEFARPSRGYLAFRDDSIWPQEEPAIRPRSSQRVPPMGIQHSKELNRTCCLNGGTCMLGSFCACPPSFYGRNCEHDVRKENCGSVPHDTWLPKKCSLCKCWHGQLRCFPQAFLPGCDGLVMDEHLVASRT

For “Fc-free Cripto-1 (soluble Cripto-1 from which the Fc fragment had been proteolytically removed) (domain or fragment)”, in assay [1], the Kd was 79.9 nM; the koff (commonly the rate constant with which the complex falls apart) worked out at 0.00179 s⁻¹; the kon (in general, a measure of how fast the partners come together) was found to be 22400 M⁻¹ s⁻¹.

B1: Nodal (ligand)
chain: HHLPDRSQLCRKVKFQVDFNLIGWGSWIIYPKQYNAYRCEGECPNPVGEEFHPTNHAYIQSLLKRYQPHRVPSTCCAPVKTKPLSMLYVDNGRVLLDHHKDMIVEECGCL
With B1, the Kd in assay [2] amounted to 10.4 nM; in assay [3] it was 27.8 nM; in assay [4], 14.3 nM; in assay [5], 10.1 nM. Also, the koff in assay [2] amounted to 0.00104 s⁻¹; in assay [3], 0.00541 s⁻¹; in assay [4] it was 0.000404 s⁻¹; in assay [5], 0.0116 s⁻¹. The kon in assay [2] was found to be 34100 M⁻¹ s⁻¹; in assay [3], 195000 M⁻¹ s⁻¹; in assay [4], 28200 M⁻¹ s⁻¹; in assay [5], 1.14e+06 M⁻¹ s⁻¹.
